± gives the standard deviation of the averaged measurements.
Legend:
Assay in all cases: protein stability index of tFT-peptide fusion (C-terminal peptide) (PSI (0-1 scale)); higher = more stable (slower turnover)
[1] = system: Saccharomyces cerevisiae; conditions: temperature: 30 C
Description: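 MPS profiling in S. cerevisiae of the yeast C-terminome library: the last 12 aa of each annotated ORF are fused to the C-terminus of a sfGFP-mCherry timer, after a GGGS linker. Cells are FACS-sorted into 8 mCherry/sfGFP bins and deep-sequenced. PSI runs from 0 (unstable) to 1 (stable); wild type and das1Δ backgrounds, two technical replicates each.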

[2] = system: Saccharomyces cerevisiae
Description: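 MPS profiling in S. cerevisiae of the tFT-X12 degron library: putative degron peptides plus stable controls, 12 aa, fused to the C-terminus of a sfGFP-mCherry timer. Cells are FACS-sorted into 8 mCherry/sfGFP bins and deep-sequenced. PSI runs from 0 (unstable) to 1 (stable). Backgrounds are wild type, das1Δ and doa10Δ at 30 °C, and wild type, das1Δ, cdc34-1 and cdc53-1 at 37 °C; 2-3 technical replicates each.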

[3] = system: Saccharomyces cerevisiae; conditions: genetic background: wild type; temperature: 30 C
[4] = genetic background: das1 deletion

Sequence | protein stability index [1, 4] | protein stability index ([1]; genetic background: wild type) | also measured
AAKYLNSLSVNQ [PTP1 C-terminal 12 aa] | 0.698 ± 0.029 | 0.686 ± 0.043 | –
ACDNSGLIGIFQ [VPS15 C-terminal 12 aa] | 0.723 ± 0.02 | 0.681 ± 0.069 | –
ACFTRLPTPAIL [TRM8 C-terminal 12 aa] | 0.68 ± 0.0089 | 0.6593 ± 0.0055 | –
ACFVFSPSAMVT [BRP1 C-terminal 12 aa] | 0.6493 ± 0.0022 | 0.637 ± 0.028 | –
ADARDKFVDLYN [ADD66 C-terminal 12 aa] | 0.696 ± 0.027 | 0.708 ± 0.1 | –
ADRASVEIIDAN [PFA3 C-terminal 12 aa] | 0.705 ± 0.021 | 0.7046 ± 0.0057 | –
ADWKAQRGEDGK [PNG1 C-terminal 12 aa] | 0.67376 ± 7.2e-05 | 0.703 ± 0.014 | –
AEHHLQTFLSEK [ISC1 C-terminal 12 aa] | 0.6488 ± 0.0013 | 0.641 ± 0.02 | –
AELILETSYDKF [MRX1 C-terminal 12 aa] | 0.729 ± 0.011 | 0.722 ± 0.055 | –
AESPEEADVEMS [PUP2 C-terminal 12 aa] | 0.6788 ± 0.0056 | 0.707 ± 0.052 | –
AFLKIFENAMPN [ADD37 C-terminal 12 aa] | 0.725 ± 0.019 | 0.678 ± 0.0089 | –
AFRSLQKSKKKK [PKH3 C-terminal 12 aa] | 0.717 ± 0.042 | 0.793 ± 0.034 | –
AGEKTVAELMEN [PYP1 C-terminal 12 aa] | 0.679 ± 0.025 | 0.687 ± 0.022 | –
AGIRKRDWDSTQ [RFM1 C-terminal 12 aa] | 0.717 ± 0.02 | 0.691 ± 0.055 | –
AIQEYNARYPLN [ABF2 C-terminal 12 aa] | 0.708 ± 0.0085 | 0.707 ± 0.021 | –
AKCGEWTPELSS [CPR2 C-terminal 12 aa] | 0.71451 ± 0.00067 | 0.731 ± 0.014 | –
AKERLNPPSNRR [NIP1 C-terminal 12 aa] | 0.708 ± 0.014 | 0.688 ± 0.02 | –
AKGKGKSDEKIL [YIL086C C-terminal 12 aa] | 0.7026 ± 0.0025 | 0.73 ± 0.12 | –
ALNGDCCLWRWV [SWD3 C-terminal 12 aa] | 0.708 ± 0.015 | 0.292 ± 0.013 | –
ALNRADKMSTIG [URH1 C-terminal 12 aa] | 0.676 ± 0.027 | 0.6665 ± 0.0042 | –

Sequence | protein stability index [1, 4] | protein stability index ([1]; genetic background: wild type) | also measured
ALSEYMENTSGL [RSC9 C-terminal 12 aa] | 0.696 ± 0.059 | 0.728 ± 0.014 | –
ANLFSSKKKAKL [RSB1 C-terminal 12 aa] | 0.803 ± 0.058 | 0.822 ± 0.061 | –
ANRQCYVNGTKT [YDR250C C-terminal 12 aa] | 0.663 ± 0.0094 | 0.69065 ± 0.00059 | –
APAEQTQGEPTK [BMH2 C-terminal 12 aa] | 0.71 ± 0.013 | 0.677 ± 0.012 | –
APDNGPTVEEVD [SSA4 C-terminal 12 aa] | 0.69 ± 0.0087 | 0.662 ± 0.023 | –
APEEEAYKPNQN [KRR1 C-terminal 12 aa] | 0.708 ± 0.0089 | 0.671 ± 0.012 | –
APRLRLEDIFQQ [RET1 C-terminal 12 aa] | 0.752 ± 0.011 | 0.7 ± 0.052 | –
AQGKLIMNVEKF [AST1 C-terminal 12 aa] | 0.712 ± 0.05 | 0.689 ± 0.019 | –
AQQNYRLWLSSF [ICY1 C-terminal 12 aa] | 0.7166 ± 0.0069 | 0.6246 ± 0.0033 | –
ARGYVNVMDNIQ [SEC16 C-terminal 12 aa] | 0.6727 ± 0.0025 | 0.678 ± 0.042 | –
ARIWKYKKIAPN [TUP1 C-terminal 12 aa] | 0.726 ± 0.0075 | 0.706 ± 0.0071 | –
ARMLARECRRHM [CDC23 C-terminal 12 aa] | 0.7022 ± 0.00087 | 0.698 ± 0.054 | –
ASRFAQFLKQDA [MET16 C-terminal 12 aa] | 0.717 ± 0.012 | 0.764 ± 0.15 | –
ATALSGHKANCN [MTQ1 C-terminal 12 aa] | 0.6878 ± 0.0049 | 0.6424 ± 0.0012 | –
ATFFRYLSNIFT [AGP3 C-terminal 12 aa] | 0.723 ± 0.0077 | 0.698 ± 0.0078 | –
ATLINILLELFS [ECM27 C-terminal 12 aa] | 0.632 ± 0.014 | 0.63 ± 0.018 | –
ATSTAAAADKKT [HAP2 C-terminal 12 aa] | 0.6674 ± 0.0023 | 0.724 ± 0.04 | –
AVHLQAIDLLNC [PIR1 C-terminal 12 aa] | 0.714 ± 0.024 | 0.672 ± 0.01 | –
AVIVHSYTVQHM [TRM3 C-terminal 12 aa] | 0.695 ± 0.032 | 0.632 ± 0.046 | –
AVKINRNGKPRI [TAO3 C-terminal 12 aa] | 0.698 ± 0.014 | 0.6846 ± 0.0048 | –

Sequence | protein stability index [1, 4] | protein stability index ([1]; genetic background: wild type) | also measured
AVVLQSIQFTSE [IML3 C-terminal 12 aa] | 0.621 ± 0.018 | 0.608 ± 0.024 | –
AWDKFKLQNDIN [SWA2 C-terminal 12 aa] | 0.736 ± 0.015 | 0.698 ± 0.03 | –
AYFIDVVGCSGL [LIH1 C-terminal 12 aa] | 0.706 ± 0.00073 | 0.705 ± 0.025 | –
AYLLFYTIRQVN [UBP8 C-terminal 12 aa] | 0.366 ± 0.012 | 0.14 ± 0.011 | –
AYQIRQEVLQSL [SGA1 C-terminal 12 aa] | 0.65923 ± 0.00056 | 0.672 ± 0.012 | –
AYVLFYHRVYGV [DOA4 C-terminal 12 aa] | 0.691 ± 0.011 | 0.648 ± 0.026 | –
CDIQEEQVDITA [PUP1 C-terminal 12 aa] | 0.695 ± 0.0088 | 0.682 ± 0.015 | –
CEYGTNAIDALI [YER091C-A C-terminal 12 aa] | 0.7311 ± 0.0014 | 0.6917 ± 0.0036 | –
CICSGMLFEMDG [SIN4 C-terminal 12 aa] | 0.696 ± 0.011 | 0.716 ± 0.067 | –
CIPLINYHLRKS [CBS1 C-terminal 12 aa] | 0.709 ± 0.022 | 0.673 ± 0.023 | –
CKDQTVTQILAT [DMO1 C-terminal 12 aa] | 0.6533 ± 0.0054 | 0.682 ± 0.029 | –
CLCLINLCCDVF [YDR034W-B C-terminal 12 aa] | 0.267 ± 0.0034 | 0.295 ± 0.0068 | –
CMESNPPVFMAI [YNL296W C-terminal 12 aa] | 0.709 ± 0.035 | 0.713 ± 0.021 | –
CRGIAEVNMKYT [PPS1 C-terminal 12 aa] | 0.6869 ± 0.0036 | 0.6326 ± 0.0059 | –
CTFIYFLYFSLF [YBL070C C-terminal 12 aa] | 0.325 ± 0.0072 | 0.288 ± 0.03 | –
CWENVRKTRAAK [PSO2 C-terminal 12 aa] | 0.692 ± 0.0083 | 0.6966 ± 0.005 | –
CYTEEEWSKIVV [BOL2 C-terminal 12 aa] | 0.7072 ± 0.003 | 0.717 ± 0.019 | –
DACIKRWNVVLE [AIP1 C-terminal 12 aa] | 0.684 ± 0.023 | 0.71 ± 0.049 | –
DDDDDDDGQITA [YHR131C C-terminal 12 aa] | 0.677 ± 0.027 | 0.6663 ± 0.004 | –
YAFSTCTILIRF | – | – | protein stability index ([2]; genetic background: cdc34-1, temperature: 37 C): 0.187 ± 0.0071; protein stability index ([2]; genetic background: cdc53-1, temperature: 37 C): 0.154 ± 0.044; protein stability index ([2]; genetic background: das1 deletion, temperature: 30 C): 0.211 ± 0.034; protein stability index ([2]; genetic background: das1 deletion, temperature: 37 C): 0.338 ± 0.015; protein stability index ([2]; genetic background: doa10 deletion, temperature: 30 C): 0.38 ± 0.013; protein stability index ([2]; genetic background: wild type, temperature: 30 C): 0.222 ± 0.018; protein stability index ([2]; genetic background: wild type, temperature: 37 C): 0.3071 ± 0.0018; protein stability index [3]: 0.328 ± 0.048

Source: the supplement of paper PMC10724198
